For this test, the target named is Aβ42 (human) (UniProt P05067).

The values that follow come from article PMC6596341.

Sequence of Aβ42 (human) (P05067 672-713): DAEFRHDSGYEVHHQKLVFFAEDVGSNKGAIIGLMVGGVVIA

B1: S100B (natural protein)
chain: MSELEKAMVALIDVFHQYSGREGDKHKLKKSELKELINNELSHFLEEIKEQEVVDKVMETLDNDGDGECDFQEFMAFVAMVTTACHEFFEHE
Consider B1, for which the reaction half time (t1/2) of ThT-monitored fibril formation of 5 μM monomeric Aβ42 in the presence of 15 μM S100B, 50 mM Hepes pH 7.4, 1.1 mM CaCl2, 37°C, quiescent (Aβ42 alone t1/2 = 0.8 h) was 2.2 h.
